Here are results for 12 molecules from patent US20250171562A1 (ALK ABELL, published 2025).

Where only a bound is given, the exact number is not on record here.

Sequences and labels used below:
B1: NIgG4B1A1(RS) (Fc fusion)
chain 1: QVQLQESGGGLVQTGGSLRLSCAVHGRTFSNTGMGWFRQAPGNERQFVAIISPSGTSTYYADSVKGRFTISRDPAKNTVYLQMNSLKMDDTAVYYCAASYGSNWSTLRHQRRNEYDAWGQGTQVAVSRSGPPCPPCPAPEFLGGPSVFLFPPKPKDTLMISRTPEVTCVVVDVSQEDPEVQFNWYVDGVEVHNAKTKPREEQFNSTYRVVSVLTVLHQDWLNGKEYKCKVSNKGLPSSIEKTISKAKGQPREPQVYTLPPCQEEMTKNQVSLWCLVKGFYPSDIAVEWESNGQPENNYKTTPPVLDSDGSFFLYSRLTVDKSRWQEGNVFSCSVMHEALHNHYTQKSLSLSLGK
chain 2: EVQLLESGGGLVQPGGSLRLSCAASGFTFGNYDMAWVRQAPGKRPEWVSSIDTGGDITHYADSVKGRFTISRDNAKNTLYLQMNSLRPEDTAVYWCATDEEYALGPNEFDYYGQGTLVTVSSRSGPPCPPCPAPEFLGGPSVFLFPPKPKDTLMISRTPEVTCVVVDVSQEDPEVQFNWYVDGVEVHNAKTKPREEQFNSTYRVVSVLTVLHQDWLNGKEYKCKVSNKGLPSSIEKTISKAKGQPREPQVCTLPPSQEEMTKNQVSLSCAVKGFYPSDIAVEWESNGQPENNYKTTPPVLDSDGSFFLVSRLTVDKSRWQEGNVFSCSVMHEALHNHYTQKSLSLSLGK
notes: same for the Fc fusions below
B2: F5A1(G4S)4 (bispecific antibody)
chain: DVQLQESGGGLVQPGGSLRLSCAASGSIFSIDIMGWYRQAPGKQRELVATMPEGNYINYADSVKGRLTLSRDKGKNTVYLQLNSLKPEDTAVYYCYGFGVREGRGNVYWGQGTQVTVSGGGGSGGGGSGGGGSGGGGSEVQLLESGGGLVQPGGSLRLSCAASGFTFGNYDMAWVRQAPGKRPEWVSSIDTGGDITHYADSVKGRFTISRDNAKNTLYLQMNSLRPEDTAVYWCATDEEYALGPNEFDYYGQGTLVTVS
B3: sdAb A2 (VHH)
VHH: EVQLLESGGGLVQPGGSLRLSCAASGFRFGNYDMAWVRQAPGKRYEWVSSIDTGGDITHYADSVKGRFTISRDNAKNTLYLQMNSLRPEDTAEYWCATDEEYALGPNEFDYYGQGTLVTVS
notes: also called A1 triple mutant (T28R, P45Y, V93E)
B4: NIgG4B1A1(G4S)3 (Fc fusion)
chain 1: QVQLQESGGGLVQTGGSLRLSCAVHGRTFSNTGMGWFRQAPGNERQFVAIISPSGTSTYYADSVKGRFTISRDPAKNTVYLQMNSLKMDDTAVYYCAASYGSNWSTLRHQRRNEYDAWGQGTQVAVSGGGGSGGGGSGGGGSGPPCPPCPAPEFLGGPSVFLFPPKPKDTLMISRTPEVTCVVVDVSQEDPEVQFNWYVDGVEVHNAKTKPREEQFNSTYRVVSVLTVLHQDWLNGKEYKCKVSNKGLPSSIEKTISKAKGQPREPQVYTLPPCQEEMTKNQVSLWCLVKGFYPSDIAVEWESNGQPENNYKTTPPVLDSDGSFFLYSRLTVDKSRWQEGNVFSCSVMHEALHNHYTQKSLSLSLGK
chain 2: EVQLLESGGGLVQPGGSLRLSCAASGFTFGNYDMAWVRQAPGKRPEWVSSIDTGGDITHYADSVKGRFTISRDNAKNTLYLQMNSLRPEDTAVYWCATDEEYALGPNEFDYYGQGTLVTVSSGGGGSGGGGSGGGGSGPPCPPCPAPEFLGGPSVFLFPPKPKDTLMISRTPEVTCVVVDVSQEDPEVQFNWYVDGVEVHNAKTKPREEQFNSTYRVVSVLTVLHQDWLNGKEYKCKVSNKGLPSSIEKTISKAKGQPREPQVCTLPPSQEEMTKNQVSLSCAVKGFYPSDIAVEWESNGQPENNYKTTPPVLDSDGSFFLVSRLTVDKSRWQEGNVFSCSVMHEALHNHYTQKSLSLSLGK
B5: NIgG4B1A1(G4S)2 (Fc fusion)
chain 1: QVQLQESGGGLVQTGGSLRLSCAVHGRTFSNTGMGWFRQAPGNERQFVAIISPSGTSTYYADSVKGRFTISRDPAKNTVYLQMNSLKMDDTAVYYCAASYGSNWSTLRHQRRNEYDAWGQGTQVAVSGGGGSGGGGSGPPCPPCPAPEFLGGPSVFLFPPKPKDTLMISRTPEVTCVVVDVSQEDPEVQFNWYVDGVEVHNAKTKPREEQFNSTYRVVSVLTVLHQDWLNGKEYKCKVSNKGLPSSIEKTISKAKGQPREPQVYTLPPCQEEMTKNQVSLWCLVKGFYPSDIAVEWESNGQPENNYKTTPPVLDSDGSFFLYSRLTVDKSRWQEGNVFSCSVMHEALHNHYTQKSLSLSLGK
chain 2: EVQLLESGGGLVQPGGSLRLSCAASGFTFGNYDMAWVRQAPGKRPEWVSSIDTGGDITHYADSVKGRFTISRDNAKNTLYLQMNSLRPEDTAVYWCATDEEYALGPNEFDYYGQGTLVTVSSGGGGSGGGGSGPPCPPCPAPEFLGGPSVFLFPPKPKDTLMISRTPEVTCVVVDVSQEDPEVQFNWYVDGVEVHNAKTKPREEQFNSTYRVVSVLTVLHQDWLNGKEYKCKVSNKGLPSSIEKTISKAKGQPREPQVCTLPPSQEEMTKNQVSLSCAVKGFYPSDIAVEWESNGQPENNYKTTPPVLDSDGSFFLVSRLTVDKSRWQEGNVFSCSVMHEALHNHYTQKSLSLSLGK
B6: A1B1(G4S)1 (bispecific antibody)
chain: EVQLLESGGGLVQPGGSLRLSCAASGFTFGNYDMAWVRQAPGKRPEWVSSIDTGGDITHYADSVKGRFTISRDNAKNTLYLQMNSLRPEDTAVYWCATDEEYALGPNEFDYYGQGTLVTVSSGGGGSQVQLQESGGGLVQTGGSLRLSCAVHGRTFSNTGMGWFRQAPGNERQFVAIISPSGTSTYYADSVKGRFTISRDPAKNTVYLQMNSLKMDDTAVYYCAASYGSNWSTLRHQRRNEYDAWGQGTQVAVS
B7: A1B1(G4S)3 (bispecific antibody)
chain: EVQLLESGGGLVQPGGSLRLSCAASGFTFGNYDMAWVRQAPGKRPEWVSSIDTGGDITHYADSVKGRFTISRDNAKNTLYLQMNSLRPEDTAVYWCATDEEYALGPNEFDYYGQGTLVTVSSGGGGSGGGGSGGGGSQVQLQESGGGLVQTGGSLRLSCAVHGRTFSNTGMGWFRQAPGNERQFVAIISPSGTSTYYADSVKGRFTISRDPAKNTVYLQMNSLKMDDTAVYYCAASYGSNWSTLRHQRRNEYDAWGQGTQVAVS
B8: sdAb F6 (VHH)
VHH: DVQLQESGGGLVQAGGSLRLSCAASGLTFGSYDMGWYRQAPGKQRELVGRIRNDGITYYADSVKGRFTMSRDNAKNTVYLQMNSLKPEDTAVYYCAADGTGLGHYDYWGQGTQVTVS
B9: B1A1(G4S)2 (bispecific antibody)
chain: QVQLQESGGGLVQTGGSLRLSCAVHGRTFSNTGMGWFRQAPGNERQFVAIISPSGTSTYYADSVKGRFTISRDPAKNTVYLQMNSLKMDDTAVYYCAASYGSNWSTLRHQRRNEYDAWGQGTQVAVSGGGGSGGGGSEVQLLESGGGLVQPGGSLRLSCAASGFTFGNYDMAWVRQAPGKRPEWVSSIDTGGDITHYADSVKGRFTISRDNAKNTLYLQMNSLRPEDTAVYWCATDEEYALGPNEFDYYGQGTLVTVSS
B10: B1A1(G4S)3 (bispecific antibody)
chain: QVQLQESGGGLVQTGGSLRLSCAVHGRTFSNTGMGWFRQAPGNERQFVAIISPSGTSTYYADSVKGRFTISRDPAKNTVYLQMNSLKMDDTAVYYCAASYGSNWSTLRHQRRNEYDAWGQGTQVAVSGGGGSGGGGSGGGGSEVQLLESGGGLVQPGGSLRLSCAASGFTFGNYDMAWVRQAPGKRPEWVSSIDTGGDITHYADSVKGRFTISRDNAKNTLYLQMNSLRPEDTAVYWCATDEEYALGPNEFDYYGQGTLVTVSS
B11: NIgG4B1A1(G4S)1 (Fc fusion)
chain 1: QVQLQESGGGLVQTGGSLRLSCAVHGRTFSNTGMGWFRQAPGNERQFVAIISPSGTSTYYADSVKGRFTISRDPAKNTVYLQMNSLKMDDTAVYYCAASYGSNWSTLRHQRRNEYDAWGQGTQVAVSGGGGSGPPCPPCPAPEFLGGPSVFLFPPKPKDTLMISRTPEVTCVVVDVSQEDPEVQFNWYVDGVEVHNAKTKPREEQFNSTYRVVSVLTVLHQDWLNGKEYKCKVSNKGLPSSIEKTISKAKGQPREPQVYTLPPCQEEMTKNQVSLWCLVKGFYPSDIAVEWESNGQPENNYKTTPPVLDSDGSFFLYSRLTVDKSRWQEGNVFSCSVMHEALHNHYTQKSLSLSLGK
chain 2: EVQLLESGGGLVQPGGSLRLSCAASGFTFGNYDMAWVRQAPGKRPEWVSSIDTGGDITHYADSVKGRFTISRDNAKNTLYLQMNSLRPEDTAVYWCATDEEYALGPNEFDYYGQGTLVTVSSGGGGSGPPCPPCPAPEFLGGPSVFLFPPKPKDTLMISRTPEVTCVVVDVSQEDPEVQFNWYVDGVEVHNAKTKPREEQFNSTYRVVSVLTVLHQDWLNGKEYKCKVSNKGLPSSIEKTISKAKGQPREPQVCTLPPSQEEMTKNQVSLSCAVKGFYPSDIAVEWESNGQPENNYKTTPPVLDSDGSFFLVSRLTVDKSRWQEGNVFSCSVMHEALHNHYTQKSLSLSLGK
B12: B1A1(G4S)1 (bispecific antibody)
chain: QVQLQESGGGLVQTGGSLRLSCAVHGRTFSNTGMGWFRQAPGNERQFVAIISPSGTSTYYADSVKGRFTISRDPAKNTVYLQMNSLKMDDTAVYYCAASYGSNWSTLRHQRRNEYDAWGQGTQVAVSGGGGSEVQLLESGGGLVQPGGSLRLSCAASGFTFGNYDMAWVRQAPGKRPEWVSSIDTGGDITHYADSVKGRFTISRDNAKNTLYLQMNSLRPEDTAVYWCATDEEYALGPNEFDYYGQGTLVTVSS

T1 sequence (P01854 other isoform, or with tags, fused parts or gaps): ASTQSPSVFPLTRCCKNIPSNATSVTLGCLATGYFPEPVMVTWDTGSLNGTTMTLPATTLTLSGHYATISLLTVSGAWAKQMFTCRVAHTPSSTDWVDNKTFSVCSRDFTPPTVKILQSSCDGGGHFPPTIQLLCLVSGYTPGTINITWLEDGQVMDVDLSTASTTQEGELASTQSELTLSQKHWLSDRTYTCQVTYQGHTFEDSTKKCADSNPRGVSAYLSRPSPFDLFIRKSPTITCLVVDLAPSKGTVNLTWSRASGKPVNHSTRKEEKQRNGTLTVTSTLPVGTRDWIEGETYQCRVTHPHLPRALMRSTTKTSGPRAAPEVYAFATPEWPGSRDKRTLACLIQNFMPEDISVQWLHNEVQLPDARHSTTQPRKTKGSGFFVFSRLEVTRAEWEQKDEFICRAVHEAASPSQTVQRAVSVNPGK

The assay addresses T1, recombinant human IgE (human, UniProt P01854-1 1-428).
T1 construct: made in-house (ALK); preloaded on immobilised FcεRIα in the displacement ELISA
Put plainly: IgE-FcεRIα displacement ELISA. On the procedure: The displacement effect was tested using IgE-FcεRIα displacement ELISA assay. Maxisorp® microtiter plates (Thermo Scientific Nunc, Roskilde, Denmark) were coated with 100 μl streptavidin, 5 μg/ml (Thermo Scientific, Waltham, MA) for 18 h at 4° C. followed by wash with 300 μl washing buffer (PBS containing 0.05% Tween 20) using an AquaMax® 2000 plate washer (Molecular Devices, San Jose, CA). Remaining binding sites were blocked with 250 μl blocking buffer (PBS containing 2% BSA) for 2 h and washed with 300 μl washing buffer. Subsequently, the bound streptavidin was loaded with 100 μl (0.1 μg/ml) recombinant human FcεRIα (site specific biotinylated via avi-tag, made in-house, ALK, Hørsholm, Denmark) for 1 h and plates washed twice with 300 μl washing buffer. The bound receptor was then loaded with 100 μl recombinant human IgE (made in-house, ALK, Hørsholm, Denmark), 13 ng/ml (pre-titrated to reach an OD₄₅₀ signal in the range of 1.5-2.5 in the absence of displacement components) for 1h followed by three washes of 300 μl washing buffer.
displacement step: 100 μl sdAbs diluted in concentration series (pM-μM range) or blocking buffer only as a non-displacement negative control, were added to the ELISA wells and incubated for 1 h. Any IgE, displaced from the receptor by a sdAb was washed away by three washes of 300 μl washing buffer.
The ability of the various sdAbs to displace IgE from the receptor (FcεRIα) was evaluated by use of the ELISA based IgE-FcεRIα displacement assay. The percent displacement effect was calculated as the relative reduction in signal compared to the control with no sdAb added. The EC₅₀ values and the maximal effects were determined (table 15).
For orientation: ELISA stands for enzyme-linked immunosorbent assay.
As for B1, the EC50 stood at 1.9 nM and the Max effect was greater than 95%.
For B2 the same measures were 1100 nM and 75%.
For B3 the same measures were 250 nM and greater than 95%.
Take B4: the half-maximal effective concentration (EC50) is 0.9 nM and the Max effect is greater than 95%.
For B5 the same measures were 1.4 nM and greater than 95%.
The matching figures for B6: 1 nM and greater than 95%.
The matching figures for B7: 0.6 nM and greater than 95%.
For B8, the Max effect was less than 20%.
On to B9, for which the EC50 turned out to be 10 nM and the Max effect was greater than 95%.
The matching figures for B10: 5.3 nM and greater than 95%.
Regarding B11, the EC50 was 1.1 nM and the Max effect was greater than 95%.
For B12 the same measures were 5.3 nM and greater than 95%.

As a reminder, the EC50 is the concentration at which the effect is half-maximal.
